# Experimental data: patent US20210355194A1 (TWIST BIOSCIENCE, published 2021)
# Where a chain is given by its changes, count along the chain named.
# B1: variant 5-1 (Fc fusion)
# VHH: EVQLVESGGGLVQPGGSLRLSCAASGGTFSSIGMGWFRQAPGKEREFVAAISWDGGATAYADSVKGRFTISADNSKNTAYLQMNSLKPEDTAVYYCAKEDVGKPFDWGQGTLVTVSS
# B2: variant 5-34 (Fc fusion)
# VHH: EVQLVESGGGLVQPGGSLRLSCAASGRTFSRYIMGWFRQAPGKEREFVAAISWSGGDNTYYADSVKGRFTISADNSKNTAYLQMNSLKPEDTAVYYCAAYRIVVGGTSPGDWRWGQGTLVTVSS
# B3: variant 5-20 (Fc fusion)
# VHH: EVQLVESGGGLVQPGGSLRLSCAASGRTIVPYTMGWFRQAPGKERELVAAISPSAFTEYADSVKGRFTISADNSKNTAYLQMNSLKPEDTAVYYCAARRWGYDWGQGTLVTVSS
# B4: variant 6-20 (Fc fusion)
# VHH: EVQLVESGGGLVQPGGSLRLSCAASGSTLPYHAMGWFRQAPGKEREFVAAITWNGASTSYADSVKGRFTISADNSKNTAYLQMNSLKPEDTAVYYCARDRYYDTSASYFESETWGQGTLVTVSS
# B5: variant 6-85 (Fc fusion)
# VHH: EVQLVESGGGLVQPGGSLRLSCAASGGTFSVFAMGWFRQAPGKEREFVSAINWSGGSLLYADSVKGRFTISADNSKNTAYLQMNSLKPEDTAVYYCALFGDFDYWGQGTLVTVSS
# B6: variant 6-60 (Fc fusion)
# VHH: EVQLVESGGGLVQPGGSLRLSCAASGDTYGSYWMGWFRQAPGKEREFVATISQSGAATAYADSVKGRFTISADNSKNTAYLQMNSLKPEDTAVYYCAGLLRYSGTYYDAFDVWGQGTLVTVSS
# B7: variant 6-3 (Fc fusion)
# VHH: EVQLVESGGGLVQPGGSLRLSCAASGFTFSPSWMGWFRQAPGKEREFVATINEYGGRNYADSVKGRFTISADNSKNTAYLQMNSLKPEDTAVYYCARVDRDFDYWGQGTLVTVSS
# B8: variant 6-26 (Fc fusion)
# VHH: B7 VHH with F27D, P31T, E53T, Y54G, R57T, D99T, R100T, D101S
# B9: variant 6-78 (Fc fusion)
# VHH: EVQLVESGGGLVQPGGSLRLSCAASGRTYDAMGWFRQAPGKEREFVASVTSGGYTHYADSVKGRFTISADNSKNTAYLQMNSLKPEDTAVYYCAKFGRKIVGATELDYWGQGTLVTVSS
# B10: variant 6-76 (Fc fusion)
# VHH: EVQLVESGGGLVQPGGSLRLSCAASGLAFDFDGMGWFRQAPGKEREGVAAINSGGSTYYADSVKGRFTISADNSKNTAYLQMNSLKPEDTAVYYCARFFRAHDYWGQGTLVTVSS
# B11: variant 6-55 (Fc fusion)
# VHH: EVQLVESGGGLVQPGGSLRLSCAASGFTMSSSWMGWFRQAPGKEREFVARITSGGSTGYADSVKGRFTISADNSKNTAYLQMNSLKPEDTAVYYCASVDGYFDYWGQGTLVTVSS
# B12: variant 6-73 (Fc fusion)
# VHH: EVQLVESGGGLVQPGGSLRLSCAASGHTFSGYAMGWFRQAPGKEREFVAVITREGSTYYADSVKGRFTISADNSKNTAYLQMNSLKPEDTAVYYCARLGGEGFDYWGQGTLVTVSS
# B13: variant 6-63 (Fc fusion)
# VHH: EVQLVESGGGLVQPGGSLRLSCAASGQTFNMGWFRQAPGKEREFVAAIGSGGSTSYADSVKGRFTISADNSKNTAYLQMNSLKPEDTAVYYCWRLGNDYFDYWGQGTLVTVSS
# notes: also called VHH nanobody 6-63
# B14: SARS-CoV-2 variant 1-32 (antibody, V domains shown)
# VH: EVQLLESGGGLVQPGGSLRLSCAASGFTFSSYAMYWVRQAPGKGLEWVSAISGSGGSTFYADSVKGRFTISRDNSKNTLYLQMNSLRAEDTAVYYCTRPPYGDYGDYWGQGTLVTVSS
# VL: QSALTQPASVSGSPGQSITISCTGTSSDVGGYNLVSWYQQHPGKAPKLMIYEGNKRPSGVSNRFSGSKSGNTASLTISGLQAEDEADYYCCSYAGSSTFPVVFGGGTKLTVL
# B15: SARS-CoV-2 variant 1-49 (antibody, V domains shown)
# VH: EVQLLESGGGLVQPGGSLRLSCAASGFTFSSYAMYWVRQAPGKGLEWVSAISGSAGSTYYADSVKGRFTISRDNSKNTLYLQMNSLRAEDTAVYYCARDTNDFWGQGTLVTVSS
# VL: QSALTQPASVSGSPGQSITISCTGTSSDIGSYNLVSWYQQHPGKAPKLMIYEGTKRPSGVSNRFSGSKSGNTASLTISGLQAEDEADYYCCSYAGSRTYVFGGGTKLTVL
# B16: SARS-CoV-2 variant 1-4 (antibody, V domains shown)
# VH: EVQLLESGGGLVQPGGSLRLSCAASGFTFSSQAMSWVRQAPGKGLEWVSAISGSGGGTYYADSVKGRFTISRDNSKNTLYLQMNSLRAEDTAVYYCAKDRRFGEFDPWGQGTLVTVSS
# VL: QSALTQPASVSGSPGQSITISCTGTSSDVGTYNLVSWYQQHPGKAPKLMIYEGSQRPSGVSNRFSGSKSGNTASLTISGLQAEDEADYYCCSYAGSSSFVVFGGGTKLTVL
# B17: SARS-CoV-2 variant 1-28 (antibody, V domains shown)
# VH: EVQLLESGGGLVQPGGSLRLSCAASGFTFSSYGMSWVRQAPGKGLEWVSAISGSGGGTYYADSVKGRFTISRDNSKNTLYLQMNSLRAEDTAVYYCASSSSWQFDYWGQGTLVTVSS
# VL: B16 VL with D28G, T31S, S98T, F99H, V100Y
# B18: SARS-CoV-2 variant 1-3 (antibody, V domains shown)
# VH: B16 VH
# VL: B16 VL with T25I, T31S, S54T, Q55K
# B19: SARS-CoV-2 variant 1-5 (antibody, V domains shown)
# VH: B16 VH
# VL: B16 VL with D28G, T31S, G53A, Q55K, S97Y, S98T, V100A
# B20: SARS-CoV-2 variant 1-31 (antibody, V domains shown)
# VH: B14 VH with Y35N
# VL: B16 VL with T31K, S97R, S98T, F99P
# B21: SARS-CoV-2 variant 1-30 (antibody, V domains shown)
# VH: B14 VH with Y35T
# VL: B16 VL with S27R, T31S, S54T, Q55K, S97R, S98T, F99P
# B22: variant 5-37 (Fc fusion)
# VHH: EVQLVESGGGLVQPGGSLRLSCAASGSTFSINAMGWFRQAPGKEREFVGGISRSGATTNYADSVKGRFTISADNSKNTAYLQMNSLKPEDTAVYYCAADGVPEYSDYASGPVWGQGTLVTVSS
# Target: T1, SARS-CoV-2 spike on live SARS-CoV-2 virus (SARS-CoV-2, UniProt P0DTC2 14-1273)
# Assay: cell-based or functional assay
row,Binder,EC50 [µg/mL]
1,B1,0.1
2,B2,0.54
3,B3,0.27
4,B4,5.03
5,B5,0.84
6,B6,0.15
7,B7,0.06
8,B8,2.97
9,B9,8.26
10,B10,1.08
11,B11,0.21
12,B12,1.46
13,B13,0.06

# Target: T2, S1 Fc fusion protein (SARS-CoV-2, UniProt P0DTC2 14-685)
# Assay: phage ELISA
row,Binder,ELISA fold over background [fold]
1,B14,4
2,B15,0.8
3,B16,0.9
4,B17,1.1
5,B18,1.5
6,B19,1.2
7,B20,15.7
8,B21,5.6

# Target: T3, COVID S1 RBM Fc fusion (Antigen 2) (SARS-CoV-2, UniProt P0DTC2 437-508)
# Assay: phage ELISA
row,Binder,ELISA fold over background [fold]
1,B14,1.1
2,B15,0.8
3,B16,1.1
4,B17,1.2
5,B18,1.5
6,B19,1.4
7,B20,1.2
8,B21,1.4

# Target: SARS-CoV-2 spike on VSV-pseudotype SARS-CoV-2 (SARS-CoV-2, UniProt P0DTC2 14-1273)
# Assay: cell-based or functional assay
row,Binder,NC50 [µg/mL]
1,B1,0.1
2,B2,0.54
3,B3,0.27
4,B4,5.03
5,B5,0.84
6,B6,0.15
7,B7,0.06
8,B8,2.97
9,B9,8.26
10,B10,1.08
11,B11,0.21
12,B12,1.46
13,B13,0.06

# Target: T1, SARS-CoV-2 spike on live SARS-CoV-2 …
# Assay: cell-based or functional assay
# Remark: another data set of the same source
row,Binder,EC80 [µg/mL]
1,B1,0.811
2,B2,0.57
3,B3,0.376
4,B4,2.31
5,B5,1.06
6,B6,0.237
7,B7,0.115
8,B8,3.61
9,B9,13.8
10,B10,0.426
11,B11,0.445
12,B22,12.4
13,B12,2.02
14,B13,0.0579

# Target: T2, S1 Fc fusion protein
# Assay: phage ELISA
# Remark: another data set of the same source
row,Binder,ELISA fold over background [fold]
1,B14,4
2,B15,0.8
3,B16,0.9
4,B17,1.1
5,B18,1.5
6,B19,1.2
7,B20,15.7
8,B21,5.6

# Target: T3, COVID S1 RBM Fc fusion (Antigen 2)
# Assay: phage ELISA
# Remark: another data set of the same source
row,Binder,ELISA fold over background [fold]
1,B14,1.1
2,B15,0.8
3,B16,1.1
4,B17,1.2
5,B18,1.5
6,B19,1.4
7,B20,1.2
8,B21,1.4

# Target: T1, SARS-CoV-2 spike on live SARS-CoV-2 …
# Assay: cell-based or functional assay
# Remark: another data set of the same source
row,Binder,PRNT90 [ng/mL]
1,B1,15.6
2,B2,15.6
3,B3,3.9
4,B4,15.6
5,B5,62.5
6,B6,< 0.98
7,B7,< 0.98
8,B8,62.5
9,B9,250
10,B10,3.9
11,B11,62.5
12,B12,250
13,B13,3.9
